Reference: patent WO2012175740A1
pIC50: −log10 of the molar value. Read-outs that look alike come from different tables or passages of the source.

Tests used:
[1] = target: cyno IgE c(epsilon)2-c(epsilon)3-c(epsilon)4 Fc fragment with C-terminal (His)10 tag (cynomolgus monkey); experiment: Alphascreen, competition with HuFc(epsilon)RI(alpha)Fc for cyno IgE Fc
[2] = target: cyno IgE c(epsilon)2-c(epsilon)3-c(epsilon)4 Fc fragment with C-terminal (His)10 tag (cynomolgus monkey); experiment: as above; remark: listed apart in the source

Chain of cyno IgE c(epsilon)2-c(epsilon)3-c(epsilon)4 Fc fragment with C-terminal (His)10 tag (cynomolgus monkey) (chain, as listed by the source): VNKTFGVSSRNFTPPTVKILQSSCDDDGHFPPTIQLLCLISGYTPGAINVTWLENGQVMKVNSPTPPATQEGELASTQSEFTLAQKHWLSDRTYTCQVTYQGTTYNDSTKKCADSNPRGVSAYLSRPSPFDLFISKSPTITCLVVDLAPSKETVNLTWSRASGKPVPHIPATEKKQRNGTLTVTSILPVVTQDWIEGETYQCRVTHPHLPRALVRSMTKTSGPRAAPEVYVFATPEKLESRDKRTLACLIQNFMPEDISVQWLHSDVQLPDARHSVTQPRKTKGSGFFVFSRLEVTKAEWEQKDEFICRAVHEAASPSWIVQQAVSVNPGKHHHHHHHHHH

% inhibition at 250 nM [1]: 99.3%
pIC50 [1]: 8.86
% inhibition at 250 nM [2]: 97.7%
pIC50 [2]: 8.89
Substance: Fab obtained by papain digestion of commercially obtained omalizumab
